Measurements taken from patent publication US20260098090A1.

Target: T1, IL-2Rbg on mouse splenocytes (NK cells, CD8+ T cells, Treg cells) (mouse) (UniProt P16297)
T1 sequence (looked up) 1: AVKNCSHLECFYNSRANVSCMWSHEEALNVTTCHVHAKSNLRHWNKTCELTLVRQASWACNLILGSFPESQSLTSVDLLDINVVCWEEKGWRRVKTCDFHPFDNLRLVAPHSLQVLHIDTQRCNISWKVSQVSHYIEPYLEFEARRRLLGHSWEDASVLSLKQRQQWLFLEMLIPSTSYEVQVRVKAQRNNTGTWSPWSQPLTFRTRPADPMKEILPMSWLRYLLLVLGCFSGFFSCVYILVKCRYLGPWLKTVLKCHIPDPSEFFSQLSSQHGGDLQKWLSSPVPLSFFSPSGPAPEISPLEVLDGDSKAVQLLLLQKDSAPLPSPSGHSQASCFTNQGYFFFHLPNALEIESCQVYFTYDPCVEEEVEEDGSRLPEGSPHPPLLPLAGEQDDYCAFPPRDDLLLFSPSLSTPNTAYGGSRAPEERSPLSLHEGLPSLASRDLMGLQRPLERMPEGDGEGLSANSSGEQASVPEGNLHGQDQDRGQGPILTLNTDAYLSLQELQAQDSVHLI
T1 sequence (looked up) 2: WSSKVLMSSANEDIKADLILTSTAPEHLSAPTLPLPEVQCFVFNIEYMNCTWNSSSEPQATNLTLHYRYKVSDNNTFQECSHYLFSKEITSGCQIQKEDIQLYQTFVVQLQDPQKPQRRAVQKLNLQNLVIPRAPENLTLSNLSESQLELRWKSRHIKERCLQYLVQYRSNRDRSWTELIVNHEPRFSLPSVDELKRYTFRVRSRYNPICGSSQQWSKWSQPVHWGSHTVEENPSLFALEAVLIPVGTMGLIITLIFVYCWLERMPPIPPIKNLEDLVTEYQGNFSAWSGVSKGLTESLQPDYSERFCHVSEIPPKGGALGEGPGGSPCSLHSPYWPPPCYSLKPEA
Test: cell-based or functional assay

B1: CTRL-mIL2v2 (protein, part only; not given: control antibody chains and linker, not shown: small tags and cut ends)
heavy, part: APTSSSTSSSTAEAQQQQQQQQQQQQHLEQLLMDLQELLSRMENYRNLKLPEMLTAKFALPKQATELKDLQCLEDELGPLRHVLDLTQSKSFQLEDAENFISNIRVTVVKLKGSDNTFECQFDDESATVVDFLRRWIAFAQSIISTSPQ
  pSTAT5 staining of murine splenocytes, EC50 on CD8+ T cells: 26 nM
  pSTAT5 staining of murine splenocytes, EC50 on NK cells: 8.6 nM
  pSTAT5 staining of murine splenocytes, EC50 on Treg cells: 42.5 nM
